Measurements from the supplement of paper PMC9170038.

System: MS2 coat protein
Assay: apparent KD of MS2 coat protein; designed switch direction (-1 OFF switch, 1 ON switch): 1; higher = weaker reporter binding
In short: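 SNAP-549-labelled MS2 coat protein was titrated, doubling from 0.7 or 1.5 nM to 3 µM, over designed RNA switches transcribed on Illumina chips by stalled E. coli RNA polymerase. Runs were done without input, with 200 uM small-molecule ligand, or with an oligonucleotide input. Apparent KD is the per-design median over clusters of curve-fitted normalised fluorescence.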

[1] = input ligand: microRNA oligo, concentration not stated
[2] = Eterna round: R95, input ligand: microRNA oligo, concentration not stated
[3] = Eterna round: R95, input ligand: FMN 200 uM
[4] = Eterna round: R95, input ligand: none

Sequence | apparent KD of MS2 coat protein (input ligand: FMN 200 uM) [nM] | apparent KD of MS2 coat protein [1] [nM] | apparent KD of MS2 coat protein (input ligand: none) [nM] | apparent KD of MS2 coat protein [2] [nM] | apparent KD of MS2 coat protein [3] [nM] | apparent KD of MS2 coat protein [4] [nM]
GCUCGAAUCACAACCAACAUGAGGAUCACCCAUGUGUGUUGGUAGGAUAUCGUUUCUAAGGGAAACGAGAAGGGCCGAACGAGC [SameState NG3 #8] (Eterna round: R96, puzzle: Same State NG 3) | 18.9 | 12.4 | 21.7 | – | – | –
UUCUCAUUUACAUGAGGAUCACCCAUGUUUUUUUGUCAGAAAUAGGAUAUAGGUCUCUCGUUUUACUAGAAGGAUUUCUUUAUU [JR_SSNG3_Sub088] (Eterna round: R96, puzzle: Same State NG 3) | 146 | 134 | 145 | – | – | –
GCUCGCACGAUGACCCACAUGAGGAUCACCCAUGUGCUUGGGCAGGAUAUCUAGAUUAAGGAUGUAGAGAAGGGUUGAGCGAGC [SameState NG3 #27] (Eterna round: R96, puzzle: Same State NG 3) | 308 | 113 | 230 | – | – | –
UGUACCUGCACAGGAUAUCAUGCGAAAAUUGCGUGAGAAGGGUGAAUACUGUCUUUCUAAGAGUACAUGAGGAUCACCCAUGUA [SameState NG1 #61] (Eterna round: R96, puzzle: Same State NG 1) | 156 | 91.8 | 119 | – | – | –
CCGUUCAAUAAACAUGAGGAUCACCCAUGUAAUAAUAAGGGUGAGGAUAUGCAUCUGAAACAGGUGCAGAAGGCAUAAGAGCGG [JL SSNG3 3.90] (Eterna round: R96, puzzle: Same State NG 3) | 487 | 289 | 585 | – | – | –
ACAUGAGAUUGAGGAUAUAUUGUACCUACAUGUGACAUGAGGAUCACCCAUGUGGUAAGUAUGACAUAGAAGGCAGAGAUAUGU [Equivalance 84 - Jieux - Same State NG 2] (Eterna round: R96, puzzle: Same State NG 2) | 67.7 | 107 | 75.3 | – | – | –
GGUGCAAUAAACGCCUACAUGAGGAUCACCCAUGUAUGUAGGCAGGAUAUCGUUUGCAAAGCAAACGAGAAGGGCUGUAGUACC [Mat - Same State NG 3 - JL Mod - D41] (Eterna round: R96, puzzle: Same State NG 3) | 51.5 | 82.3 | 142 | – | – | –
GUGGUCAGACAUGAGGAUCACCCAUGUGGAAUAAAUAAGGACUAGGAUAUGGAAUAUAGGAUAUACCAGAAGGAGUGGUUGGUG (Eterna round: R96, puzzle: Same State NG 3) | – | 36.5 | – | – | – | –
AUUAAUUAAUUAAUACAUGAGGAUCACCCAUGUAAUAAGAUCUAGGAUAUCAGCUCGUUUAGAGCUGAGAAGGAGAUCACAUGU [SSNG3/17-A3] (Eterna round: R96, puzzle: Same State NG 3) | – | 32.7 | – | – | – | –
GCUGCAAGGGCAGGAUAUGGGUCCAGAGCGCAAGUGCGCCCUGGUACAUGAGGAUCACCCAUGUCCCAGAAGGGCCCAAGCAGC [Vetierribi] (Eterna round: R96, puzzle: Same State NG 2) | 12.9 | 68.9 | 87.6 | – | – | –
ACAUGAGAACGAGGAUAUUUUGUACCUACAUGUGACAUGAGGAUCACCCAUGUGGUAAGUAUGAGAAAGAAGGCGUAGAUAUGU [Equivalence 14 - Jieux - Same State NG 2] (Eterna round: R96, puzzle: Same State NG 2) | 21.9 | 30.6 | 29 | – | – | –
UUGCGGGAUUAAGGAUAUUGAGUACAUAUGUUUAACAUGAGGAUCACCCAUGUGGGUUGCGGUAUCGAGAAGGUAACUUACUAC [salish99_SSNG2_r04_804] (Eterna round: R96, puzzle: Same State NG 2) | 92.9 | 79.3 | 96.3 | – | – | –
AGAUCAUGACGAGGAUAUGGUACAUGAGGAUCACCCAUGUAUGUACCACGACGGAAACGUCGAAUCCAGAAGGCGUCGUGAUCA [Mat - Same State NG 2 - JL mod - D23] (Eterna round: R96, puzzle: Same State NG 2) | 47.5 | 100 | 127 | – | – | –
AACAAUCUAUCUGAGGAUAUCAUGAAAUAAACAUGAGGAUCACCCAUGUGUAGGAAAACUGCAUAUGAGAAGGCAGAUAGAUUGA [salish99_ss2_r3_036] (Eterna round: R96, puzzle: Same State 2) | – | 465 | – | – | – | –
CAUCCCUCCACAGGAUAUCGACCGAUAAAACGGCGAGAAGGGUGGCCACAUGAGGAUCACCCAUGUGGAAUUGGAUGAGCUACA [Enlaed] (Eterna round: R96, puzzle: Same State NG 1) | 78.7 | 66.6 | 126 | – | – | –
CCCUCAUGCAGGCUAACACGCUUGUUUUAACAUGAGGAUCACCCAUGUACGUCGCCGUUUCGUGCGGGACGCGCAGA [Anuscear] (Eterna round: R96, puzzle: Sensor for hsa-mir-208a) | 363 | 229 | 169 | – | – | –

Sequence | apparent KD of MS2 coat protein (input ligand: FMN 200 uM) [nM] | apparent KD of MS2 coat protein [1] [nM] | apparent KD of MS2 coat protein (input ligand: none) [nM] | apparent KD of MS2 coat protein [2] [nM] | apparent KD of MS2 coat protein [3] [nM] | apparent KD of MS2 coat protein [4] [nM]
GGAGCCGGCCUAGGAUAUUUCAUUAAAAAACAUGAGGAUCACCCAUGUAGGCCAGAAGGCCUUGGGAAGAAGGAGGUCGGCUCC [Loop Effect - U24] (Eterna round: R96, puzzle: Same State NG 2) | 12.7 | 16.2 | 24.6 | – | – | –
GUAGCAUACCGAGGAUAUUCAUAUUACAUGAGGAUCACCCAUGUUUUAGGCCGAUUACGGCCUUGGGAGAAGGCGGAAUGCUAC [Xeonanis - 20 Mod23] (Eterna round: R96, puzzle: Same State NG 2) | 13.8 | 20.1 | 28.8 | – | – | –
GCUCUACAUGAGGAUCACCCAUGUUCGGACGCACGAGGAUAUGCAUGGGCGAAAGCUGGUGCAGAAGGCGUGGGAC [inDCorner] (puzzle: Same State 1) | – | – | – | 150 | – | –
ACAUGAGAUGGAGGAUAUGUUGUACCUACAUGUGACAUGAGGAUCACCCAUGUGGUAAGUAUGAUACAGAAGGCCAAGAUAUGU [Equivalance 59 - Jieux - Same State NG 2] (Eterna round: R96, puzzle: Same State NG 2) | 16.5 | 15.8 | 27.2 | – | – | –
AUUGUUUAUGCAGGAUAUGAUUAACAUGAGGAUCACCCAUGUGGUGUUGUGAGUAAGGAGAGUGAUCAGAAGGGCAUUUUUUUU [JMF's solution 69] (Eterna round: R96, puzzle: Same State NG 2) | 735 | 273 | 411 | – | – | –
UUUAAACAUGAGGAUCACCCAUGUCAACAAAGUCGAGGAUAUGGGCAAAUAAAAUAAGAACCAGAAGGCGAAUAAU [salish99_ss1_r3_068] (puzzle: Same State 1) | – | – | – | 585 | 49.2 | 334
AAACCACAUGAGGAUCACCCAUGUGAUAAAAGCAUAGGAUAUCUGGAUGUGAGAGGCGGCAGAGAAGGAUGCACGC [Laoror] (puzzle: Same State 1) | – | – | – | 58.2 | – | –
AGUAUACAUGAGGAUCACCCAUGUCAGUAACUGACAGGAUAUGCGUUGCAUCACUGUAAUGCAGAAGGGUCUUGUA [Same State 1 - Mod of JMF's solution 1] (puzzle: Same State 1) | – | – | – | 181 | 98.2 | 415
GUAGCAUACCGAGGAUAUUCAUAUAAUAAAUACAUGAGGAUCACCCAUGUUAGGCGAAAGCCUUGGGAGAAGGCGGAAUGCUAC [Xeonanis - 20 Mod58] (Eterna round: R96, puzzle: Same State NG 2) | 14.4 | 35.8 | 44.8 | – | – | –
AUAAAACAUGAGGAUCACCCAUGUCAACAAAGUCGAGGAUAUGGGCAAAUAAAAUAAGAACCAGAAGGCGAAUAAU [Teenbexe] (Eterna round: R96, puzzle: Same State 1) | 42.1 | 207 | 273 | – | – | –
CGACCAAUUGUUUAAUAAACAUGAGGAUCACCCAUGUUUCGUGAGGAUAUCUAGGGUGAAGCACGGGAGAAGGCACUACGGUCA [Eternabot solution 21] (Eterna round: R96, puzzle: Same State NG 3) | 142 | 120 | 134 | – | – | –
AGGCUCAGAGCAGGAUAUAUGUGGUCACAUGAGGAUCACCCAUGUCUCGAGCUUCGGCUCGAGGCAUAGAAGGGCUCUGAGCCA [SSNG2/5-B1] (Eterna round: R96, puzzle: Same State NG 2) | 963 | 22.9 | 53.9 | – | – | –
GUUCGGAAUCGAGCUGACAUGAGGAUCACCCAUGUUAGUGGGAAGGAUAUGGUACAGAAACUGUACCAGAAGGUCCUGCUGUCU [MOD2 Omei's SS(NG) 3 AV9] (Eterna round: R96, puzzle: Same State NG 3) | 38.2 | 57.2 | 59.5 | – | – | –
AAGUAACAUGAGGAUCACCCAUGUGAGGUGAGCGUAGGAUAUCGAGAAGGAAGGGUGGAGCGAGAAGGACGAAGGA [JR_SS1_Sub0102] (puzzle: Same State 1) | – | – | – | 192 | 349 | 501
GCCAUCGAAUGAGGAUAUGGCACCGUUUCGGUGCCAGAAGGCAUGUCAAUUGACAUGAGGAUCACCCAUGUAUUAUCGAUGGCA [JL Fiskers NG1ss - 33 mod 5] (Eterna round: R96, puzzle: Same State NG 1) | 119 | 712 | 1640 | – | – | –
